We go through one substance from US20260174885A1.

For test [1], the target named is human epidermal growth factor receptor (human EGFR) (human) (UniProt P00533). The test is described as follows: flow cytometry, BD FACS Aria; WI-38 cells stained with PE-anti hEGFR antibody for 30 minutes on ice. On the technique in general: In flow cytometry, cells or beads pass a laser one at a time.
Test [2] has the same target. The test is described as follows: flow cytometry, Beckman Coulter CytoFLEX S; U87MG cells stained with PE-anti hEGFR antibody for 30 minutes on ice.
For test [3] the target is unchanged. The test is described as follows: flow cytometry, Beckman Coulter CytoFLEX S; WI-38 cells stained with PE-anti hEGFR antibody for 30 minutes on ice.
For test [4] the target is unchanged. As to the kind of experiment: flow cytometry, BD FACS Aria; MCF-7 cells (low EGFR expression) stained with PE-anti hEGFR antibody for 30 minutes on ice.
For test [5] the target is unchanged. The test is described as follows: flow cytometry, BD FACS Aria; RencaEGFR M1 H cells (human EGFR on the cell surface) stained with PE-anti hEGFR antibody for 30 minutes on ice.

Regarding “PE-anti hEGFR antibody (Biolegend, Cat #352904)”, the MFI stood at 53300 in test [1]; 1020 in test [2]; 1100 in test [3]; 2670 in test [4]; 834000 in test [5].
